Laboratory results: paper PMC10206079, “Bioinformatics of cyanophycin metabolism genes and characterization of promiscuous isoaspartyl dipeptidases that catalyze the final step of cyanophycin degradation” (Scientific Reports, 2023)

How the values were obtained:
LmIadA = molecular target: T1, LmIadA (Leucothrix mucor, UniProt A0AA82WPE9); test: coupled Asp release assay (aspartate aminotransferase / malate dehydrogenase, NADH at […] nm); type: biochemical; details: 1 mM dipeptide, 500 nM enzyme, 100 mM HEPES pH 8.2, 20 mM KCl
T1 construct: C-terminal TEV site and 8xHis tag (cut for structural work only); expressed in E. coli BL21(DE3); homooctamer, zinc enzyme

[1] = molecular target: Leucothrix mucor DSM2157 isoaspartyl dipeptidase (LmIadA), as crystallised (Leucothrix mucor DSM2157); test: crystal structure; LmIadA 20 mg/ml, sitting drop, 0.56 M NaH2PO4 and 1.04 M K2HPO4, 22 °C; 1.8 Å; molecular replacement with PDB 1YBQ
[2] = molecular target: Leucothrix mucor DSM2157 isoaspartyl dipeptidase (LmIadA), purified enzyme as examined in solution (Leucothrix mucor DSM2157); test: not stated; purified enzyme in solution; shown in Supplementary Fig. S2; the method is not given
[3] = molecular target: Roseivivax halodurans DSM15395 isoaspartyl aminopeptidase (RhIaaA), heterodimer of subunits a and b (Roseivivax halodurans DSM15395); test: as above
[4] = molecular target: Roseivivax halodurans DSM15395 isoaspartyl aminopeptidase (RhIaaA), heterodimer of subunits a and b (Roseivivax halodurans DSM15395); test: crystal structure; RhIaaA 10 mg/ml, sitting drop, 0.1 M bis-tris propane pH 8.5, 0.2 M disodium malonate, 25% PEG3350, 4 °C; 2.7 Å; molecular replacement with PDB 2ZAL

`N=C(N)NCCC[C@H](NC(=O)C[C@H](N)C(=O)O)C(=O)O` [β-Asp-Arg] was tested, and the “coupled Asp release assay (aspartate aminotransferase / malate dehydrogenase, NA)” value (LmIadA) was “it displayed no apparent preference towards β-Asp-Arg/Lys (Fig. 2a)”.

In the case of `NCCCC[C@H](NC(=O)C[C@H](N)C(=O)O)C(=O)O` [β-Asp-Lys], the “coupled Asp release assay (aspartate aminotransferase / malate dehydrogenase, NA)” value (LmIadA) is reported as “it displayed no apparent preference towards β-Asp-Arg/Lys (Fig. 2a)”.

Work on “Leucothrix mucor DSM2157 isoaspartyl dipeptidase (LmIadA), as crystallised (enzyme)” yielded a stoichiometry N [1] of 8.

For “Leucothrix mucor DSM2157 isoaspartyl dipeptidase (LmIadA), purified enzyme as examined in solution”, the stoichiometry N [2] was 8.

Work on “Roseivivax halodurans DSM15395 isoaspartyl aminopeptidase (RhIaaA), heterodimer of subunits a and b (complex)” yielded a stoichiometry N [3] of 2 and a stoichiometry N [4] of 2.
